This experiment has as its target CD3 on CD3+ Jurkat cells (human, UniProt P07766 23-207). The experiment is described as follows: FACS binding, Jurkat cells. (In general: Flow cytometry measures light scatter and fluorescence of single cells or particles in a stream.)

CD3 on CD3+ Jurkat cells, sequence (P07766 23-207): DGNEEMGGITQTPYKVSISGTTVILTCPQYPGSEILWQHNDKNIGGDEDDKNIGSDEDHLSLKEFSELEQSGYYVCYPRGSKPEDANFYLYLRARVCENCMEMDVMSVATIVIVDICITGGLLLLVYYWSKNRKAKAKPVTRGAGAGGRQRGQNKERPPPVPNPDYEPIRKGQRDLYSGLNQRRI

B1: m-13/CD3-v2 (antibody)
chain 1: QLQLQQSGTELVRPGSSVKISCKASGYAFSNYWMNWVKQRPGQGLEWIGQIYPGNGDTKYNGNFKGKATLTADKSSSTAYMQLSSLTSEDSADYFCARYYRGNCFDYWGQGTTLTVSS
chain 2: DIVLTQSPSSLTVTAGEKVTMSCKSSQSLLNSGNQKNYLTWYQQKPGQPPKLLIYWASTRDSGVPARFTGSGSGTDFTLTINSVQAEDLAVYYCQNAYTYPLTFGAGTKLEIK
chain 3: EVQLVESGGGLVKPGGSLKLSCAASGFTFSTYAMNWVRQAPGKGLEWVARIRSKYNNYATTYADSVKDRFTISRDDSKNTAYLQMNNLRTEDTAVYYCVRHGNWGNSYISYWAYWGQGTTVTVSS
chain 4: not shown
The term EC50 denotes the concentration at which the effect is half-maximal. A low value points to a more potent agent. With B1, the midpoint of the response, the EC50, lay at 26.5 nM.

Values taken from patent publication US20240117035A1 (published 2024).
